Test results: publication PMC3255974

Experiment: parallel wall flow chamber, 293T α4β7 transfectants
Conditions: glycan lost; control: wild type

B1: integrin β7 subunit: N260A (protein)
parent chain: MVALPMVLVLLLVLSRGESELDAKIPSTGDATEWRNPHLSMLGSCQPAPSCQKCILSHPSCAWCKQLNFTASGEAEARRCARREELLARGCPLEELEEPRGQQEVLQDQPLSQGARGEGATQLAPQRVRVTLRPGEPQQLQVRFLRAEGYPVDLYYLMDLSYSMKDDLERVRQLGHALLVRLQEVTHSVRIGFGSFVDKTVLPFVSTVPSKLRHPCPTRLERCQSPFSFHHVLSLTGDAQAFEREVGRQSVSGNLDSPEGGFDAILQAALCQEQIGWRNVSRLLVFTSDDTFHTAGDGKLGGIFMPSDGHCHLDSNGLYSRSTEFDYPSVGQVAQALSAANIQPIFAVTSAALPVYQELSKLIPKSAVGELSEDSSNVVQLIMDAYNSLSSTVTLEHSSLPPGVHISYESQCEGPEKREGKAEDRGQCNHVRINQTVTFWVSLQATHCLPEPHLLRLRALGFSEELIVELHTLCDCNCSDTQPQAPHCSDGQGHLQCGVCSCAPGRLGRLCECSVAELSSPDLESGCRAPNGTGPLCSGKGHCQCGRCSCSGQSSGHLCECDDASCERHEGILCGGFGRCQCGVCHCHANRTGRACECSGDMDSCISPEGGLCSGHGRCKCNRCQCLDGYYGALCDQCPGCKTPCERHRDCAECGAFRTGPLATNCSTACAHTNVTLALAPILDDGWCKERTLDNQLFFFLVEDDARGTVVLRVRPQEKGADHTQAIVLGCVGGIVAVGLGLVLAYRLSVEIYDRREYSRFEKEQQQLNWKQDSNPLYKSAITTTINPRFQEADSPTL
  other: rolling cell adhesion in shear flow: increases
